Data on 2 molecules can be found in patent US20120231006A1 (Amgen, published 2012).

In assay [1] the target is T1, hOrai1-mOrai1 ECL2 (RPTSKPPA) protein (human/mouse chimera, UniProt Q96D31 1-301).
T1 construct: also called Ch
Description: FACS, 293EBNA transfectants [D00032 FIG. 17B]. Here is the method:
(§1) FACS binding analysis. Transfected 293EBNA cells transiently expressed hOrai1-mOrai1 ECL2 or mOrai1-hOrai1 ECL2 chimera. The transfected cells were harvested at 48 hours post-transfection. Cells transfected with pcDNA3.1 were used as negative controls. Cells were washed once with ice-cold 1×PBS, resuspended in ice-cold FACS buffer (1×D-PBS+2% goat serum), and 2×10⁵ cells in 100 μL were stained per antibody combination. All antibody incubation steps were performed on ice for 1 hour. […] Next, the unlabelled antibody was detected using goat F(ab′)₂ anti-mouse or anti-human IgG-phycoerythrin (IgG-PE), followed by a wash with 200 μL of ice-cold FACS buffer before flow cytometry analysis. Unstained cells and cells stained with detecting antibodies were used as negative controls. The values of relative level of fluorescence were calculated using FCS Express (De Novo Software) and mean values were calculated using log-transformed data (geometric mean). […]
(§2) Representative results of FACS analysis of binding to the mutant hOrai1-mOrai1 ECL2 chimera described above by exemplary anti-hOrai1 antibodies of the present invention are shown in FIG. 17A-D, Table 10A and Table 10B below. Table 10A (Campaign 1) and Table 10B (Campaign 2) show the gain in binding ability of exemplary monoclonal antibodies to hOrai 1-mOrai 1 ECL2 chimera mutants as determined by FACS.
Background: Flow cytometry measures light scatter and fluorescence of single cells or particles in a stream.

Assay [2] concerns the target T2, hOrai1-mOrai1 ECL2 (…) protein (human/mouse chimera, UniProt Q96D31 1-301).
T2 construct: also called Ch
Description: FACS, 293EBNA transfectants [D00032 FIG. 17B]. The method, then: as §1, §2

Assay [3] concerns the target T3, mOrai1-hOrai1 ECL2 (…) protein (human/mouse chimera, UniProt Q8BWG9 1-304 (mouse entry)).
T3 construct: also called Ch
Description: FACS, 293EBNA transfectants [D00030 FIG. 16D]. The source says:
(§3) FIG. 16A-D illustrates the results of FACS analysis showing binding to the indicated mOrai1-hOrai1 ECL2 chimeric mutants expressed on the surface of HEK-293-EBNA cells. Transfected cells were stained first with recombinant monoclonal antibodies then counter-stained with a secondary phycoerythrin-labeled goat (“Gt”) anti-human (“Hu”) IgG F(ab′)₂ antibody fragment and visualized using FACS. In FIG. 16B and FIG. 16D, The values of Relative Fluorescence Intensity as Percent of Control (RFI-POC) are calculated from the relative fluorescence intensity geometric mean (Geo Mean). The geometric mean is an average calculated by multiplying a series of numbers and taking the nth root where n is the number of numbers in the series. It is a statistical average of a set of transformed numbers often used to represent a central tendency in a highly variable data set that minimizes the effects of extreme values.
(§4) Table 11A and Table 11B feature a schematic representation of the POC data from FIG. 16B and FIG. 16D, respectively, where the binding results are recorded as (+++) denoting binding POC from 40% to 100%, (++) for POC of 5% to less than 40%, (+) for POC from 1% to less than 5% and (−) as lack of binding with POC less than 1%.

In assay [4] the target is T4, mOrai1-hOrai1 ECL2 (AESVIV) protein (human/mouse chimera, UniProt Q8BWG9 1-304 (mouse entry)).
T4 construct: also called Ch
Description: FACS, 293EBNA transfectants [D00030 FIG. 16D].
Source text: as §3, §4

T4 sequence (Q8BWG9 other isoform, or with tags, fused parts or gaps): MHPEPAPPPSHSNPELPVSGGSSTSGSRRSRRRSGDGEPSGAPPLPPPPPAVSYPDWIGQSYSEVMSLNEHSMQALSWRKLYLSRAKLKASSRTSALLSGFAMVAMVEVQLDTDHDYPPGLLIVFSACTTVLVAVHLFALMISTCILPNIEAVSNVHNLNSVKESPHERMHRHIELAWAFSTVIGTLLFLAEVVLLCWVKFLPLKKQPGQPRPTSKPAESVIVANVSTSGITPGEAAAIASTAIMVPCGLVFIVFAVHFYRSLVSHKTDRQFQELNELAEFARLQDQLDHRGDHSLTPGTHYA
T2 sequence (Q96D31 other isoform, or with tags, fused parts or gaps): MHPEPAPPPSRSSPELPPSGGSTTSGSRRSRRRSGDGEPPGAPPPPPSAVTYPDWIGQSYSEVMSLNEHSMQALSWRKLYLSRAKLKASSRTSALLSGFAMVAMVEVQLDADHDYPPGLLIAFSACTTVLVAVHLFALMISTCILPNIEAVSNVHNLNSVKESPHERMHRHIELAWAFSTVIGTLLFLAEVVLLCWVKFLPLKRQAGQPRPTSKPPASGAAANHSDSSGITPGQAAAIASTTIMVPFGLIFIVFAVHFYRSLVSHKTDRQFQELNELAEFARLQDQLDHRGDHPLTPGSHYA
T3 sequence (Q8BWG9 other isoform, or with tags, fused parts or gaps): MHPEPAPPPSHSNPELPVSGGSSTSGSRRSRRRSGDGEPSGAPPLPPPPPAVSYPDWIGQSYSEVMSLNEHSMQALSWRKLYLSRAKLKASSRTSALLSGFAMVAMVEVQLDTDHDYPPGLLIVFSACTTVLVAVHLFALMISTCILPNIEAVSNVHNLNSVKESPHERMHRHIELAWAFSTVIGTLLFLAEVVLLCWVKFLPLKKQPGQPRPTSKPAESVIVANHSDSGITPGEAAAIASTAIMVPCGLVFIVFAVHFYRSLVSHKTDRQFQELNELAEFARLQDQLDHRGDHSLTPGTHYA
T1 sequence (Q96D31 other isoform, or with tags, fused parts or gaps): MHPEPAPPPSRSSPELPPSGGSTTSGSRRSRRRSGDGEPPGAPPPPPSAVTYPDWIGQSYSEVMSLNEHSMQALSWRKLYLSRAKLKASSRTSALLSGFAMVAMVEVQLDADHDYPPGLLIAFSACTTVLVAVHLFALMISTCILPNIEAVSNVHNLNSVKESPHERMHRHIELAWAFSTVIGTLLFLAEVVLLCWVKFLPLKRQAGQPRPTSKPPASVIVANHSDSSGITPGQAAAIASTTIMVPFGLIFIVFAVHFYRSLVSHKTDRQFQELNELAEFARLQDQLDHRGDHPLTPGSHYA

B1: mAb 2B4.1 (antibody, human IgG2, lambda, V domains shown)
VH: QVQLVQSGAEVKKPGASVKVSCKASGYTFTDYYMHWVRQAPGQGLEWMGWINPNSGGTNYVQKFQDRVTMTRDTSITTAYMELTRLRSDDTAVYYCAREEGDYGMDVWGQGTTVTVSS
VL: QSVLTQPPSVSGAPGQRVTISCTGSNSNIGTGYDVHWYQKLPGTAPRLLIYSHFNRPSGVPDRFSGSTSGTSASLAITGLQAEDEADYYCQSYDSSLSGSVFGGGTKLTVLG
Regarding B1, the binding result in assay [1] and in assay [2] was “binds” throughout.

B2: mAb 2D2.1 (antibody, human IgG2, lambda, V domains shown)
VH: QVQLQQWGAGLLKPSETLSLTCAVYGGSFSGYYWSWIRQPPGKGLEWIGEIDHSGRINYNPALKSRLTISVDTSKNQFSLKLSSVTAADTAVYYCARAGSGGYEDWFDPWGQGTLVTVSS
VL: QSVLTQPPSVSGAPGQRVTISCTGSSSNIGAGYNVHWYQQFPRTDPKLLIYVYNIRPSGVPDRFSGSRSGTSASLAITGLQTEDEADYYCQSYDSSLSGVVFGGGTKLTVLG
notes: fully human IgG2 lambda, Campaign 1; also called mAb 2D.1
For B2, the binding result in assay [3] and in assay [4] was “binds” each time.
